Results on one substance are retold here after patent US20250163144A1.

For experiment [1], the target named is CD38 (human) (UniProt P28907). Put plainly: flow cytometry on KMS-18 cells.
The target in experiment [2] is CD38 (human) (UniProt P28907). Put plainly: flow cytometry on KMS-12 cells. A general note: In flow cytometry, cells or beads pass a laser one at a time.

As to Anti-CD38 HIT2 mAb (antibody), the MFI is 44.5 MFI in experiment [1] and 62.4 MFI in experiment [2].
